Assay [1] has as its target human ROR1 (hROR1) on the cell surface (human) (UniProt Q01973). Briefly: cell-based or functional assay.
The target is the same in assay [2]. Briefly: cell-based or functional assay. This is another data set of the same source.

Positions count from the first letter of the chain named. Like-named read-outs stand apart in the source and are kept apart here.

Chain of human ROR1 (hROR1) on the cell surface (human) (Q01973 30-937): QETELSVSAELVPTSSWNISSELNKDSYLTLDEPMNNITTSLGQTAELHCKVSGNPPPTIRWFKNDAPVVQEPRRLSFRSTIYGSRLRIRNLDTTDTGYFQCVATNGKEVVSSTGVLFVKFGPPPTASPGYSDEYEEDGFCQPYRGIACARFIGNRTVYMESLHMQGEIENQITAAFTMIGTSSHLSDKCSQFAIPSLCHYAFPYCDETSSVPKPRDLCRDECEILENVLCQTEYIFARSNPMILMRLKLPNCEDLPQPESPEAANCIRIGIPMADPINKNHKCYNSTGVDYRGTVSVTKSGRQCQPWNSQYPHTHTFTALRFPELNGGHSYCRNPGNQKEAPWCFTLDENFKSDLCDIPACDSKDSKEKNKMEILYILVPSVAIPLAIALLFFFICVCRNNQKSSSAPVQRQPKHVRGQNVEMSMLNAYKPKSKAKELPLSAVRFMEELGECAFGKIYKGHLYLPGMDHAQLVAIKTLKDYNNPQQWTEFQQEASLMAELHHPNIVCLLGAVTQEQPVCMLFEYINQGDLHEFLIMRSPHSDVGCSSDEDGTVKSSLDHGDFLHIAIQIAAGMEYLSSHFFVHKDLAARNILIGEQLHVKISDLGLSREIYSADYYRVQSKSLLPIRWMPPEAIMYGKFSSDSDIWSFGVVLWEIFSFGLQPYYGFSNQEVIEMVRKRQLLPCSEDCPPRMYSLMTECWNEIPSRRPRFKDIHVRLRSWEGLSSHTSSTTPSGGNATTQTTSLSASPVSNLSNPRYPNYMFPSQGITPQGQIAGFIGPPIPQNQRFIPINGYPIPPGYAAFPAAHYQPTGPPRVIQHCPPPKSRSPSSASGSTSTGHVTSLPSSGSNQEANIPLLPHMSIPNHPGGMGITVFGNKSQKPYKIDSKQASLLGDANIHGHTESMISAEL

B1: XBR1-402-G5-PNU (antibody, V domains shown)
VH: QEQQKESGGGLFKPTDTLTLTCTASGFDISSYYMSWVRQAPGNGLEWIGAIGISGNAYYASWAKSRSTITRNTNLNTVTLKMTSLTAADTATYFCARDHPTYGMDLWGPGTLVTVSS
VL: SYELTQLPSVSVSLGQTARITCEGNNIGSKAVHWYQQKPGLAPGLLIYDDDERPSGVPDRFSGSNSGDTATLTISGAQAGDEADYYCQVWDSSAYVFGGGTQLTVTG
modifications: EDA-PNU-159682 derivative on the C-terminal glycine (G5-PNU joined by sortase)
As to B1, in assay [1], the IC50, in vitro cell killing of A549 cells was 177 µg/mL; the IC50, in vitro cell killing of HS 578T cells was 1.4 µg/mL; the IC50, in vitro cell killing of HT-29 cells is 23.3 µg/mL; the IC50, in vitro cell killing of hROR1-overexpressing EMT-6 cells worked out at 1.7 nM.

B2: R12-G5-PNU (antibody, V domains shown)
VH: QEQLVESGGRLVTPGGSLTLSCKASGFDFSAYYMSWVRQAPGKGLEWIATIYPSSGKTYYATWVNGRFTISSDNAQNTVDLQMNSLTAADRATYFCARDSYADDGALFNIWGPGTLVTISS
VL: ELVLTQSPSVSAALGSPAKITCTLSSAHKTDTIDWYQQLQGEAPRYLMQVQSDGSYTKRPGVPDRFSGSSSGADRYLIIPSVQADDEADYYCGADYIGGYVFGGGTQLTVTG
modifications: EDA-PNU-159682 derivative on the C-terminal glycine (G5-PNU joined by sortase)
With B2, in assay [1], the IC50, in vitro cell killing of 697 cells was 100 nM; the IC50, in vitro cell killing of HS 578T cells was 3.5 µg/mL; the IC50, in vitro cell killing of HT-29 cells was determined as 10.3 µg/mL; the IC50, in vitro cell killing of MDA-MB-468 cells came out at 3.96 µg/mL. The molecule further came in with an IC50, in vitro cell killing of 697 cells in assay [2] of 0.873 µg/mL.

B3: Top43-G5-PNU (adc204) (antibody, V domains shown)
VH: QSLEESGGRLVTPGTPLTLTCTVSGFSLSSYWMSWVRQAPGKGLEWIGAIYGSGNTYYASWAKGRFTISKTSTTVDLKITSPTTEDTATYFCARDVHSTATDLWGPGTLVTISS
VL: SYELTQLPSVSVSLGQTARITCGGNNIGSKAVNWYQQKPGLAPGLLIYNDDERPSGVPDRFSGSNSGDTATLTISGAQAGDEADYYCQLWDSSAGAYVFGGGTQLTVTG
modifications: EDA-PNU-159682 derivative on the C-terminal glycine (G5-PNU joined by sortase)
With B3, in assay [1], the IC50, in vitro cell killing of 697 cells was determined as 0.314 µg/mL; the IC50, in vitro cell killing of A549 cells turned out to be 109 µg/mL; the IC50, in vitro cell killing of HS 578T cells stood at 0.707 µg/mL; the IC50, in vitro cell killing of HT-29 cells was 23.1 µg/mL. Further, the IC50, in vitro cell killing of MDA-MB-468 cells in assay [1] was determined as 0.463 µg/mL.

B4: ERR1-301-G5-PNU (adc200) (antibody, V domains shown)
VH: QEQLEESGGGLVTPGGSLTLTCTASGFTISTYHMSWVRQAPGKGLEWIGSIYAGSGSTYYASWVNGRFTISSNTTQNTVSLQMNSLTVADTATYFCARDHPSYGMDLWGPGTLVTVSS
VL: B3 VL with N26S, N49D, G63A, G80E, G95V
modifications: EDA-PNU-159682 derivative on the C-terminal glycine (G5-PNU joined by sortase)
B4 yielded an IC50, in vitro cell killing of 697 cells in assay [1] of 0.592 µg/mL.
